Data set [1] addresses T1, BmILF (interleukin enhancer binding factor homolog) (Bombyx mori (Bm12 cell cDNA), UniProt A0A1U9WZ16 1-382).
T1 sequence: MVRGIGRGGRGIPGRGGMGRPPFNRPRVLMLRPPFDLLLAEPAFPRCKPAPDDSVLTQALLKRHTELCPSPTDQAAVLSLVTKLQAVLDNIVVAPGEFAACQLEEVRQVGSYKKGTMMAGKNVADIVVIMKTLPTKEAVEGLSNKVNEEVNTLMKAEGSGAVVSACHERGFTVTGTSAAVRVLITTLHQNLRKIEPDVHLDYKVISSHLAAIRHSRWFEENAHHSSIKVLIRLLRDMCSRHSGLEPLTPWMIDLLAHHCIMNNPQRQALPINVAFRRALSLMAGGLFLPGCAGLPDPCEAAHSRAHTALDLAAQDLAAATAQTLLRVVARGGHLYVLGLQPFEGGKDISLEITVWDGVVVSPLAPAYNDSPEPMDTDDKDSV
Briefly: EMSA. Background: A gel shift assay detects complexes by their altered migration in electrophoresis.

Data set [2] deals with T1, BmILF (interleukin enhancer binding …). Briefly: EMSA. This is another data set of the same source.
Data set [3] has the same target. The experiment in a line: competition.

This note sets out measurements from article PMC5829645.

For the molecule TTGTTGCACTGCTACTCGGCTCACTCGCGCATCGCACTGG (ssDNA) [BmPOUM2 i-motif mutant probe], the binding result in data set [1] is “no binding”.

TTGTTGCCCCGCCCCTCGGCCCCCTCGCGCCCCGCACTGG (structured_DNA) [BmPOUM2 i-motif wild-type probe]: the binding result in data set [2] is on record as “binds”.

On to TTGTTGCCCCGCCCCTCGGCCCCCTCGCGCCCCGCACTGG (structured_DNA) [unlabeled wild-type i-motif cold probe], for which the binding result in data set [3] is “binds”.
